The target of experiment [1] is T1, human soluble FLT3L (recombinant huFLT3L) (human, UniProt P49771 27-184).
T1 construct: extracellular domain; also called rhuFLT3L; hFLT3L
T1 sequence (looked up): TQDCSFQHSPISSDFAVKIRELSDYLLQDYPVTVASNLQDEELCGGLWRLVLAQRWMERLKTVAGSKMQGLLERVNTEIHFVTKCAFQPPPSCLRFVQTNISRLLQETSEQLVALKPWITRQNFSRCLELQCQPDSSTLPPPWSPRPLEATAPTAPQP
Kind of experiment: Biacore, Fab. On the technique in general: Surface plasmon resonance follows binding to a sensor surface in real time, without labels.

For experiment [2], the target named is T1, human soluble FLT3L (recombinant …). As to the kind of experiment: Biacore, Fab, kinetic (koff/kon).
For experiment [3] the target is unchanged. Kind of experiment: cell-based or functional assay.
The target in experiment [4] is cynomolgus monkey soluble FLT3L (cynomolgus monkey). As to the kind of experiment: cell-based or functional assay.
For experiment [5], the target named is T2, recombinant human stem cell factor (SCF) (human, UniProt P21583 26-189).
T2 construct: also called huSCF; KIT-ligand
T2 sequence (P21583 26-189 limits assumed): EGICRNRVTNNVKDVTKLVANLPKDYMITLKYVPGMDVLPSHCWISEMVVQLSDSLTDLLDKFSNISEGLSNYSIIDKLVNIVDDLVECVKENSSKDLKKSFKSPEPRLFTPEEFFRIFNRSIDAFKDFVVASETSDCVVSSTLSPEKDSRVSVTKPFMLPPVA
Kind of experiment: ELISA on coated recombinant human SCF. As for the experimental part: (§1) To test this, an ELISA plate was coated with 2 µg of recombinant human SCF or CSF1. After washing, the plate was blocked with 3% milk in Tris-Phosphate Buffered Saline (TPBS) and lead antibodies were added in serial (×2) dilution, starting at 50 µg/ml. After incubation, unbound antibody was removed by washing and bound antibody was detected using anti-human IgG-HRP in combination with TMB substrate for color development. Commercially available goat anti-SCF pAb and mouse anti-CSF1 mAb were used as positive binding controls.
In general terms: In an ELISA, binding on a coated surface is turned into a signal by an enzyme label.

The target of experiment [6] is T3, recombinant human colony stimulating factor 1 (CSF1) (human, UniProt P09603 33-190, limits assumed).
T3 construct: also called huCSF1; huCSF
T3 sequence (looked up): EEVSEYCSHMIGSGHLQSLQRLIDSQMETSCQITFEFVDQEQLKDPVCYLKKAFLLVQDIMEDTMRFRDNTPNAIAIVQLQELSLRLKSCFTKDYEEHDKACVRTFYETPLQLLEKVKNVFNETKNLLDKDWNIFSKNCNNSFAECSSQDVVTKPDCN
As to the kind of experiment: ELISA on coated recombinant human CSF1. As to the method: as §1

The target of experiment [7] is T4, cynomolgus monkey FLT3L on CHO cells (cynomolgus monkey).
T4 construct: whole, on cells; also called cell surface cyno FLT3L
Kind of experiment: flow cytometry on CHO cells expressing full-length cyno FLT3L, PE anti-hu IgG. As for the experimental part: (§2) Consistent with this, cell surface binding to human, cyno, and mouse FLT3L was evaluated by transfecting Chinese hamster ovary (CHO) cells with the respective full-length protein for each species. Candidate clones were incubated with FLT3L-expressing cell lines for 1 hour at 4° C. before being washed twice to remove unbound antibody. Cells were then incubated with PE-labeled goat anti-hu IgG secondary detection pAb to quantitate bound antibody which was measured by flow cytometric analysis of PE signal. The huFLT3-Fc construct, on a hu IgG backbone, was used as a positive control reagent for FLT3L expression as it cross reacts with cyno and mouse, in addition to human ligand.
(§3) As differences were apparent in the degree of receptor occupancy for each clone, both EC50 and max occupancy were noted (expressed as percent relative to FLT3-Fc) and taken into account in the final evaluation. Results are shown in Table 4 for human, cyno, and mouse FLT3L expressed in CHO cells.
Background: Flow cytometry measures light scatter and fluorescence of single cells or particles in a stream.

In experiment [8] the target is T5, human FLT3L on the cell surface (human, UniProt P49771 27-235).
T5 construct: whole, on cells; The assay field of each row says which cells carried it; also called cell-surface FLT3L; huFLT3L-expressing CHO cells
T5 sequence (looked up): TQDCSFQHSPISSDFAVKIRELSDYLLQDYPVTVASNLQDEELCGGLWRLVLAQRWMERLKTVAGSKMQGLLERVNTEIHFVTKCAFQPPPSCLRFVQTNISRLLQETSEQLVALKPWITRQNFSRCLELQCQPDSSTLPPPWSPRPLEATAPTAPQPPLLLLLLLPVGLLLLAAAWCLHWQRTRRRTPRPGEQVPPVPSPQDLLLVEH
As to the kind of experiment: flow cytometry on CHO cells expressing full-length human FLT3L, PE anti-hu IgG. As to the method:
as §2, §3

For experiment [9], the target named is T6, mouse FLT3L on CHO cells (mouse, UniProt P49772 27-232).
T6 construct: whole, on cells; also called cell surface mouse FLT3L
T6 sequence (looked up): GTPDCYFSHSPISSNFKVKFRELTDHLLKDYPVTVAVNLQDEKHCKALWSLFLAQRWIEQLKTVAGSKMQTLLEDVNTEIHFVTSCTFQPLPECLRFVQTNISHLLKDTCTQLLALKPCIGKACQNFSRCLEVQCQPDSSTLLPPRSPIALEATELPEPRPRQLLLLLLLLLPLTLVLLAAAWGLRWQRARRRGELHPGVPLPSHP
Kind of experiment: flow cytometry on CHO cells expressing mouse FLT3L, anti-hu IgG-PE detection. As to the method: as §2

A further experiment concerns the target T7, mouse soluble FLT3L (mouse, UniProt P49772 27-189).
T7 sequence (looked up): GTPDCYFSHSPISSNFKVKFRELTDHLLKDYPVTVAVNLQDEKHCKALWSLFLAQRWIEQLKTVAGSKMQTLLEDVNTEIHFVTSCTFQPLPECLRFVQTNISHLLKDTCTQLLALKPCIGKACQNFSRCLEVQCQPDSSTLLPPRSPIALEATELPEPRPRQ
Kind of experiment: cell-based or functional assay.

Experiment [10] deals with T1, human soluble FLT3L (recombinant …). Kind of experiment: cell-based or functional assay. The source holds these as a separate data set.
For experiment [11], the target named is T6, mouse FLT3L on CHO cells. Kind of experiment: flow cytometry on CHO cells expressing full-length mouse FLT3L, PE anti-hu IgG. As for the experimental part: as §2, §3
Experiment [12] addresses T1, human soluble FLT3L (recombinant …). As to the kind of experiment: Biacore.
Experiment [13] has as its target T8, cynomolgus monkey soluble FLT3L (cynomolgus monkey).
T8 construct: extracellular domain; also called cyno sFLT3L; cyno FLT3L
Kind of experiment: Biacore.

B1: Dyax3 Fab (Fab, V domains shown)
VH: EVQLLESGGGLVQPGGSLRLSCAASGFTFSMYEMRWVRQAPGKGLEWVSVIPSGGKTFYADSVKGRFTISRDNSKNTLYLQMNSLRAEDTAVYYCARYSRWFGQLGFYSHYAMDVWSQGTTVTVSS
VL: DIQMTQSPSSLSASVGDRVAITCRASQSIDTYLNWYQQKPGKAPKLLIYAASKLEDGVPSRFSGSGTGTDFTLTIRSLQPEDFASYFCQQSYSSPGITFGPGTKVEIK
Turning to B1, in experiment [1], the koff is 0.00123 s⁻¹ and the kon was 66000 M⁻¹ s⁻¹. Also, in [2], the Kd amounted to 18.7 nM.

B2: CAT26 antibody (IgG1 TM format) (antibody, V domains shown)
VH: EVQLLESGGGLVQPGGSLRLSCAASGFTFSSYAVSWVRQAPGKGLEWVSAISGSGGSTYYADSVKGRFTISRDNSKNTLYLQMNSLRAEDTAVYYCVKDAYGSSWYFYYFDYWGQGTMVTVSS
VL: QSVLTQPPSASGTPGQRVTISCSGSSSNIGINPVNWYQQLPGTAPKVLIYSDKYRPSGVADRFSGSKSGTSASLAISGLQSEDEADYFCAAWDDSLNGRVFGTGTKLTVL
Take B2: the “IC50 (nM), inhibition of FLT3 downregulation on RS4;11 cells” value (“IC50 (nM), inhibition” below) in experiment [3] came out at 618 nM; in experiment [4], 2580 nM. For the same molecule, the values for the binding result (in [5]; in experiment [6]; in the experiment with mouse FLT3L on CHO cells [9]) were “no binding (tested: about 0.3 uM)”, “no binding (tested: about 0.3 uM)” and “no binding (tested: x = -7.2 (x axis without title or unit))”, respectively. Also, the EC50 in experiment [7] is 1.1 nM; in experiment [8] it was 0.19 nM. Besides, the “maximum occupancy (% relative to FLT3-Fc)” value in [7] was 96%; in experiment [8] it was 46%.

B3: CAT26 Fab (Fab, V domains shown)
VH: EVQLLESGGGLVQPGGSLRLSCAASGFTFSSYAVSWVRQAPGKGLEWVSAISGSGGSTYYADSVKGRFTISRDNSKNTLYLQMNSLRAEDTAVYYCVKDAYGSSWYFYYFDYWGQGTMVTVSS
VL: QSVLTQPPSASGTPGQRVTISCSGSSSNIGINPVNWYQQLPGTAPKVLIYSDKYRPSGVADRFSGSKSGTSASLAISGLQSEDEADYFCAAWDDSLNGRVFGTGTKLTVL
Consider B3, for which, in [1], the koff stood at 0.00084 s⁻¹ and the kon turned out to be 191000 M⁻¹ s⁻¹. Besides, the Kd in experiment [2] came to 4.37 nM.

B4: Dyax5 antibody (IgG1 TM format) (antibody, V domains shown)
VH: EVQLLESGGGLVQPGGSLRLSCAASGFTFSSYIMVWVRQAPGKGLEWVSSIYSSGGSTSYADSVKGRFTISRDNSKNTLYLQMNSLRAEDTAVYYCTRYSRWFGQLGFYSHYAMDVWSQGTTVTVSS
VL: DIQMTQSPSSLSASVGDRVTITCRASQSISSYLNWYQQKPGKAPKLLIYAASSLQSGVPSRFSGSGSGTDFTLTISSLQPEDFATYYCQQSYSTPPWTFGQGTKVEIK
For B4, the “IC50 (nM), inhibition” value was determined as 245 nM in experiment [3], 6020 nM in [4] and 354 nM with mouse soluble FLT3L. In addition, the “IC50 (nM) against 0.476 nM FLT3L, ERK phosphorylation in CD133+ stem cells” value in experiment [10] was found to be 25 nM. For the same molecule, the EC50 in experiment [8] was 0.66 nM; with mouse FLT3L on CHO cells [11], 0.11 nM. The “maximum occupancy (% relative to FLT3-Fc)” value in experiment [8] worked out at 28%; in the experiment with mouse FLT3L on CHO cells [11] it was 51%.

B5: Dyax5 Fab (Fab, V domains shown)
VH: EVQLLESGGGLVQPGGSLRLSCAASGFTFSSYIMVWVRQAPGKGLEWVSSIYSSGGSTSYADSVKGRFTISRDNSKNTLYLQMNSLRAEDTAVYYCTRYSRWFGQLGFYSHYAMDVWSQGTTVTVSS
VL: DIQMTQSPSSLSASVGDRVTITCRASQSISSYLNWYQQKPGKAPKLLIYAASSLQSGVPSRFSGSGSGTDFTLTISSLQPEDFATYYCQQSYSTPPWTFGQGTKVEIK
Turning to B5, in experiment [1], the koff stood at 0.00501 s⁻¹ and the kon was 228000 M⁻¹ s⁻¹. Further, in [2], the Kd is 22 nM.

B6: AM40 (MEDI1116) antibody (antibody, V domains shown)
VH: QVQLVQSGAEVKKPGSSVKVSCKASGGTFSSYALSWVRQAPGQGLEWMGTRPPTSRTASYAQKFQGRVTITVDESTSTGYMELSSLRSEDTAVYYCASNDFVYGSYRFWGQGTTVTVSS
VL: NFMLTQPHSVSESPGKTVTISCTRTSGNIAGYFVQWYQQRPGSSPTTVIYEDYQRPSGVPDRFSGSIDSSSNSASLTISGLKTEDEADYYCQSYDDYRRAAFGGGTKLTVLG
B6: in experiment [12], the Kd was found to be 0.17 nM, the koff stood at 0.00018 s⁻¹ and the association rate constant (kon) was found to be 1.09e+06 M⁻¹ s⁻¹. In experiment [13], this molecule showed a Kd of 0.063 nM, a koff of 0.00017 s⁻¹ and a kon of 2.66e+06 M⁻¹ s⁻¹.

B7: SC4017 antibody (antibody, V domains shown)
VH: QVQLVQSGAEVKKPGSSVKVSCKASGGTFSSYALSWVRQAPGQGLEWMGTRPPTSRTASYAQKFQGRVTITVDESTSTGYMELSSLRSEDTAVYYCASNDFVYGSYRFWGQGTTVTVSS
VL: NFMLTQPHSVSESPGKTVTISCTRTSGWIAGYFVQWYQQRPGSSPTTVIYEDYQRPSGVPDRFSGSIDSSSNSASLTISGLKTEDEADYYCQSYDDYRRAAFGGGTKLTVLG
As for B7, in experiment [12], the Kd came to 0.037 nM, the koff is 5e-05 s⁻¹ and the kon stood at 1.45e+06 M⁻¹ s⁻¹. Further, in [13], binding was characterised by a dissociation constant (Kd) of 0.0088 nM, the koff was determined as 5e-05 s⁻¹ and the kon turned out to be 5.84e+06 M⁻¹ s⁻¹.

B8: CAT8 antibody (IgG1 TM format) (antibody, V domains shown)
VH: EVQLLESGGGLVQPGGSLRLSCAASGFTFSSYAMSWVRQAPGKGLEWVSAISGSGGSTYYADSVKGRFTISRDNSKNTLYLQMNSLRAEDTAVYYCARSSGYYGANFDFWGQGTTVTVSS
VL: QSVLTQPPSASGTPGQRVAISCSGSSSNIGSGYVYWYQQVPGTAPTLLIHRNNQRPSGVPDRFSGSKSGTSASLAISGLRSEDEADYYCAAWDDSLSGYVFGTGTKVTV
notes: Human antibody from phage display
For B8, the “IC50 (nM), inhibition” value in experiment [3] is 43.5 nM; in [4] it was 3000 nM. Moreover, the results for the binding result (in experiment [5]; in experiment [6]; with mouse FLT3L on CHO cells [9]) were “no binding (tested: about 0.3 uM)”, “no binding (tested: about 0.3 uM)” and “no binding (tested: x = -7.2 (x axis without title or unit))”, respectively. In addition, the figures for the EC50 in experiment [7] and in [8] were 9 nM and 0.08 nM, respectively. Moreover, the “maximum occupancy (% relative to FLT3-Fc)” value in experiment [7] came to 32%; in experiment [8] it was 60%.

B9: CAT8 Fab (Fab, V domains shown)
VH: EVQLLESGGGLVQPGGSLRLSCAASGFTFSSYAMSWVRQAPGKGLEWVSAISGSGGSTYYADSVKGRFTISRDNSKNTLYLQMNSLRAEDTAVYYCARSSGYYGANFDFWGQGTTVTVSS
VL: QSVLTQPPSASGTPGQRVAISCSGSSSNIGSGYVYWYQQVPGTAPTLLIHRNNQRPSGVPDRFSGSKSGTSASLAISGLRSEDEADYYCAAWDDSLSGYVFGTGTKVTV
With B9, in experiment [1], the koff stood at 0.00556 s⁻¹ and the kon stood at 628000 M⁻¹ s⁻¹. For the same molecule, the Kd in experiment [2] worked out at 8.85 nM.

For orientation: koff means the first-order rate constant of dissociation. As usually defined, the kon is a measure of how fast the partners come together. In general, Kd refers to the concentration at which binding is half-saturated. A word on the EC50: it is the concentration giving half of the maximal effect.

These data come from patent publication US20230056815A1 (VIELA BIO, published 2023).
